One block for each binder: values may come before it.
Columns and labels:
APC1916-AA = biological target: T1, APC1916-AA; assay: two-hybrid library CCmax;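 also: natural log of median RNA to DNA barcode read ratio; higher means stronger binding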
T1 chain: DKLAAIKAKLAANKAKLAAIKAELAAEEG

APC1987-AA = biological target: T2, APC1987-AA; assay: two-hybrid library CCmax; details: mean of both orientations;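 also: natural log of median RNA to DNA barcode read ratio; higher means stronger binding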
T2 chain: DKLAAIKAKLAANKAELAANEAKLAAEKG

APC222-AA = biological target: T3, APC222-AA; assay: two-hybrid library CCmax; details: mean of both orientations;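 also: natural log of median RNA to DNA barcode read ratio; higher means stronger binding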
T3 chain: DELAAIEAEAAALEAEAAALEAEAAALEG

APC2257-AA = biological target: T4, APC2257-AA; assay: two-hybrid library CCmax; details: mean of both orientations;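 also: natural log of median RNA to DNA barcode read ratio; higher means stronger binding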
T4 chain: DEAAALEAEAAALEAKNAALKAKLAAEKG

APC2375-AA = biological target: T5, APC2375-AA; assay: two-hybrid library CCmax; details: mean of both orientations;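 also: natural log of median RNA to DNA barcode read ratio; higher means stronger binding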
T5 chain: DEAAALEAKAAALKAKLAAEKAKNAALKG

APC2474-AA = biological target: T6, APC2474-AA; assay: two-hybrid library CCmax; details: mean of both orientations;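 also: natural log of median RNA to DNA barcode read ratio; higher means stronger binding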
T6 chain: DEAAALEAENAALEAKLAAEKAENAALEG

APC2543-AA = biological target: T7, APC2543-AA; assay: two-hybrid library CCmax; details: mean of both orientations
T7 chain: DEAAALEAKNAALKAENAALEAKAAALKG

APC2556-AA = biological target: T8, APC2556-AA; assay: two-hybrid library CCmax; details: mean of both orientations
T8 chain: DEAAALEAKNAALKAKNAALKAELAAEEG

APC2724-AA = biological target: T9, APC2724-AA; assay: two-hybrid library CCmax; details: mean of both orientations
T9 chain: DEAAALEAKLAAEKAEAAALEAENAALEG

APC2811-AA = biological target: T10, APC2811-AA; assay: two-hybrid library CCmax; details: mean of both orientations
T10 chain: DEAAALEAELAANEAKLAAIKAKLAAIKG

APC2981-AA = biological target: T11, APC2981-AA; assay: two-hybrid library CCmax; details: mean of both orientations
T11 chain: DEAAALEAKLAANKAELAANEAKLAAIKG

APC3265-AA = biological target: T12, APC3265-AA; assay: two-hybrid library CCmax; details: mean of both orientations
T12 chain: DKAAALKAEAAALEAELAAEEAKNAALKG

APC3323-AA = biological target: T13, APC3323-AA; assay: two-hybrid library CCmax; details: mean of both orientations
T13 chain: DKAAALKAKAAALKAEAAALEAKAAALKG

APC3354-AA = biological target: T14, APC3354-AA; assay: two-hybrid library CCmax; details: mean of both orientations
T14 chain: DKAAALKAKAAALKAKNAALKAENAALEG

APC3881-AA = biological target: T15, APC3881-AA; assay: two-hybrid library CCmax; details: mean of both orientations
T15 chain: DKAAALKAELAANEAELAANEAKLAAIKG

APC4100-AA = biological target: T16, APC4100-AA; assay: two-hybrid library CCmax; details: mean of both orientations
T16 chain: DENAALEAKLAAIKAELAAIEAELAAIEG

APC4336-AA = biological target: T17, APC4336-AA; assay: two-hybrid library CCmax; details: mean of both orientations
T17 chain: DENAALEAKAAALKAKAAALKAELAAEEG

APC5009-AA = biological target: T18, APC5009-AA; assay: two-hybrid library CCmax; details: mean of both orientations
T18 chain: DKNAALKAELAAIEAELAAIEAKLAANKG

APC542-AA = biological target: T19, APC542-AA; assay: two-hybrid library CCmax; details: mean of both orientations
T19 chain: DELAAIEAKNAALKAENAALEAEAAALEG

APC5531-AA = biological target: T20, APC5531-AA; assay: two-hybrid library CCmax; details: mean of both orientations
T20 chain: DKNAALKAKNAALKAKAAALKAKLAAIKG

APC6088-AA = biological target: T21, APC6088-AA; assay: two-hybrid library CCmax; details: mean of both orientations
T21 chain: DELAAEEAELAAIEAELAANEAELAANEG

APC7524-AA = biological target: T22, APC7524-AA; assay: two-hybrid library CCmax; details: mean of both orientations
T22 chain: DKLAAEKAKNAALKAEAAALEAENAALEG

APC8401-AA = biological target: T23, APC8401-AA; assay: two-hybrid library CCmax; details: mean of both orientations
T23 chain: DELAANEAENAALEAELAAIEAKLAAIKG

APC8516-AA = biological target: T24, APC8516-AA; assay: two-hybrid library CCmax; details: mean of both orientations
T24 chain: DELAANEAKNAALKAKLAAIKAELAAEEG

APC9141-AA = biological target: T25, APC9141-AA; assay: two-hybrid library CCmax; details: mean of both orientations
T25 chain: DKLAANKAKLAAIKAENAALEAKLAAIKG

APC9182-AA = biological target: T26, APC9182-AA; assay: two-hybrid library CCmax; details: mean of both orientations
T26 chain: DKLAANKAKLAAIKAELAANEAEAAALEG

APC9291-AA = biological target: T27, APC9291-AA; assay: two-hybrid library CCmax; details: mean of both orientations
T27 chain: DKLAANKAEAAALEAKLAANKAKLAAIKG

APC9806-AA = biological target: T28, APC9806-AA; assay: two-hybrid library CCmax; details: mean of both orientations
T28 chain: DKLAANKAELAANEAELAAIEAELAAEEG

4H2568-bN = biological target: T29, 4H2568-bN; assay: two-hybrid library CCNG1
T29 chain: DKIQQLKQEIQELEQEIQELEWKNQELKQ

4H2619-bN = biological target: T30, 4H2619-bN; assay: two-hybrid library CCNG1
T30 chain: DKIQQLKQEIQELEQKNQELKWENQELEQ

4H2745-bN = biological target: T31, 4H2745-bN; assay: two-hybrid library CCNG1
T31 chain: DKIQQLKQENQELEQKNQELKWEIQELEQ

4H344-bN = biological target: T32, 4H344-bN; assay: two-hybrid library CCNG1
T32 chain: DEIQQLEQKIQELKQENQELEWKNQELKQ

4H363-bN = biological target: T33, 4H363-bN; assay: two-hybrid library CCNG1
T33 chain: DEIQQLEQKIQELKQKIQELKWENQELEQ

4H3907-bN = biological target: T34, 4H3907-bN; assay: two-hybrid library CCNG1
T34 chain: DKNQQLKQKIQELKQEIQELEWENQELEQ

4H3961-bN = biological target: T35, 4H3961-bN; assay: two-hybrid library CCNG1
T35 chain: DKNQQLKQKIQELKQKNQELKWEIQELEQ

4H470-bN = biological target: T36, 4H470-bN; assay: two-hybrid library CCNG1
T36 chain: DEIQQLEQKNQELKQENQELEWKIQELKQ

interaction score (APC1916-AA): -1.89
interaction score (APC1987-AA): -2.06
interaction score (APC222-AA): -1.45
interaction score (APC2257-AA): -1.73
interaction score (APC2375-AA): -1.88
interaction score (APC2474-AA): -1.31
interaction score (APC2543-AA): -1.62
interaction score (APC2556-AA): -1.71
interaction score (APC2724-AA): -1.83
interaction score (APC2811-AA): -2.01
interaction score (APC2981-AA): -1.78
interaction score (APC3265-AA): -1.75
interaction score (APC3323-AA): -1.94
interaction score (APC3354-AA): -1.8
interaction score (APC3881-AA): -1.78
interaction score (APC4100-AA): 0.352
interaction score (APC4336-AA): -1.64
interaction score (APC5009-AA): -0.00974
interaction score (APC542-AA): -1.62
interaction score (APC5531-AA): -1.75
interaction score (APC6088-AA): -1.82
interaction score (APC7524-AA): -1.57
interaction score (APC8401-AA): -0.817
interaction score (APC8516-AA): -1.83
interaction score (APC9141-AA): -1.7
interaction score (APC9182-AA): -1.82
interaction score (APC9291-AA): -2.08
interaction score (APC9806-AA): -2.04
B1: APC1916-AA (peptide)
chain: DKLAAIKAKLAANKAKLAAIKAELAAEEG

interaction score (4H2568-bN): 0.798
interaction score (4H2619-bN): -0.118
interaction score (4H2745-bN): -1.2
interaction score (4H344-bN): -0.22
interaction score (4H363-bN): 0.932
interaction score (4H3907-bN): 0.402
interaction score (4H3961-bN): 1.52
interaction score (4H470-bN): 0.618
B2: 4H2568-bN (peptide)
chain: DKIQQLKQEIQELEQEIQELEWKNQELKQ
